Experimental data published in article PMC6660512.

B1: SPARC (construct used for microscale thermophoresis not stated) (natural protein)
chain: APQQEALPDETEVVEETVAEVTEVSVGANPVQVEVGEFDDGAEETEEEVVAENPCQNHHCKHGKVCELDENNTPMCVCQDPTSCPAPIGEFEKVCSNDNKTFDSSCHFFATKCTLEGTKKGHKLHLDYIGPCKYIPPCLDSELTEFPLRMRDWLKNVLVTLYERDEDNNLLTEKQKLRVKKIHENEKRLEAGDHPVELLARDFEKNYNMYIFPVHWQFGQLDQHPIDGYLSHTELAPLRAPLIPMEHCTTRFFETCDLDNDKYIALDEWAGCFGIKQKDIDKDLVI

Columns and labels:
[1] = target: Nogo-A Δ20 (Rattus norvegicus) (UniProt Q9JK11); conditions: cited from earlier work
Sequence of UniProt Q9JK11 (Q9JK11 544-725, stated change not applied): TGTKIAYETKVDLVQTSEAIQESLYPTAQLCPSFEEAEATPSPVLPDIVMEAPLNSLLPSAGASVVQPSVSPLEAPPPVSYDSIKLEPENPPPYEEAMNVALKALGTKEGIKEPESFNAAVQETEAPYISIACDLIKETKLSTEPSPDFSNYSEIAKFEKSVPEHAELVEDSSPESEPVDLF

[2] = target: His-tagged Nogo-A-Δ20; experiment: MST; Nanotemper Monolith NT.115, as described in ref. 29; SPARC and Nogo-A-Δ20 (Suppl. Figure 4m)

Molecule | Kd [1] [nM] | Kd [2] [nM]
S1PR2 (from UniProt O95136) | 280 | –
B1 | – | 150
